# Paper PMC8482478, “N-acetylmannosamine-6-phosphate 2-epimerase uses a novel substrate-assisted mechanism to catalyze amino sugar epimerization” (The Journal of Biological Chemistry, 2021)
# B1: N-acetylmannosamine-6-phosphate 2-epimerase (NanE) from Staphylococcus aureus, wildtype (enzyme, S. aureus USA300)
# chain: MLPHGLIVSCQALPDEPLHSSFIMSKMALAAYEGGAVGIRANTKEDILAIKETVDLPVIGIVKRDYDHSDVFITATSKEVDELIESQCEVIALDATLQQRPKETLDELVSYIRTHAPNVEIMADIATVEEAKNAARLGFDYIGTTLHGYTSYTQGQLLYQNDFQFLKDVLQSVDAKVIAEGNVITPDMYKRVMDLGVHCSVVGGAITRPKEITKRFVQIMED
# notes: N-acetylmannosamine-6-phosphate 2-epimerase (NanE) of S. aureus USA300; also called SaNanE; wildtype SaNanE
# Target: the molecule itself
# Assay: AUC; sedimentation velocity, 0.5 mg/ml SaNanE in 20 mM Tris pH 8.0, 150 mM NaCl, 50,000 rpm, 20 °C; c(s) and c(M) models in SEDFIT
protein,measurement,value
B1,stoichiometry N,2
